Laboratory results from the supplement of paper PMC12042874.
± gives the uncertainty stated by the source.

Test: amyloid nucleation score (Sup35N fusion, yeast selection) (log enrichment); library NNK1; higher = more nucleation; inactive = no reads after selection
How it was run: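 The nucleation score is a DiMSum log enrichment of output over input reads, centred on the mode score of non-aggregating sequences. Sequences under 100 input reads were excluded, and reads came from Illumina sequencing of plasmid inserts. Psi-negative yeast expressing Sup35N fused to peptides of 20 random codons were induced with 100 μM copper sulfate for 24 hours and grown 7 days at 30°C on medium lacking adenine and uracil. Random libraries had three technical output replicates.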

Substance	amyloid nucleation score
MITARSLSPRIFRAESAYSE	0.117 ± 0.36
MITWKGLFPAGVGFLRLHA	-0.024 ± 0.43
MKLNGFVWPG	-0.256 ± 0.55
MKNFPLYSCP	-0.66 ± 0.69
MKSFSMLPYIIVFRYY	0.823 ± 0.85
MLGDAIMGM	1.09 ± 0.57
MLGYIHAEVHVIVSWNLCLK	-0.378 ± 0.53
MLIFHTCA	0.483 ± 1.1
MLIFNGFTLLVMRVEVAVGS	0.066 ± 0.64
MLLSFLYLV	5.26 ± 0.049
MLNAIRSVGMSTHRSSEGG	-0.475 ± 0.77
MLPMLQPTLQET	0.313 ± 0.42
MLPRPVRPVGGTRWESGVKL	0.548 ± 0.3
MLVPRSRIRIPACRFQHRLP	-0.064 ± 0.35
MMGWV	-0.619 ± 0.48
MMKVIAANRVY	0.315 ± 0.63
MMNVTVKRFRLDQHRLIDCA	0.383 ± 0.34
MMSPLKR	inactive
MMYDGIVSR	-0.184 ± 0.31
MNENCGFVKFVRSKKRFKDV	-0.287 ± 0.39
MNRVDLCVNA	0.438 ± 0.38
MNVFRGSVPAFPLPPYMRLA	-0.242 ± 0.34

Substance	amyloid nucleation score
MPAMTMMWQ	0.415 ± 0.4
MPDYVSFTSRMPLRLKLLLS	inactive
MPIEYG	-0.27 ± 0.71
MPIVKLTWLYTGVGAKPQVS	0.211 ± 0.26
MPVALKIAILTFWEKSNLCE	1.27 ± 0.88
MQNRCSCWNFECRAPW	1.06 ± 0.33
MQTLNCSPNQAHSSIFN	0.915 ± 0.97
MQVHARFYSFREEDIAGRAR	-0.443 ± 0.52
MRCSDFELMWFQIDDKYVDN	-0.201 ± 0.17
MRGAVKVGEMWNHISESRVG	0.98 ± 0.6
MRLSCLRRWGSTSVSTG	-0.305 ± 0.36
MRTLWVSKSGIRG	-0.15 ± 0.72
MSAGIVFIKQFVCS	3.25 ± 0.12
MSCPRGILGSAIWTYSIGHS	-0.232 ± 1.7
MSFSPLLFVLATFCFGLWCW	-0.402 ± 0.78
MSGFTESRCMGRMVALGPFD	0.4 ± 1.4
MSLSDNWGL	-0.288 ± 0.69
MSNKTDEDESIYNRVGVIMG	0.004 ± 0.33
MSRCLIDSIEIFHWTGGRYA	-0.386 ± 1.2
MSSPMRRDAKL	2.67 ± 0.14
MSSRDNFWVSRGAMNYRMGA	-0.325 ± 0.33
MSYSMVNGDSTF	2.33 ± 0.35

Substance	amyloid nucleation score
MTKFCID	0.965 ± 0.66
MTRNHFRYTWSVANMWERGF	-0.746 ± 1.3
MVDMLVKMGYRLLGRYISMR	0.942 ± 0.69
MVGRNWKTGSIVTLVMFRLE	0.041 ± 1.1
MVGSKSGKDGAQASSRKLAF	0.708 ± 0.34
MVKRCVDNFRKWKSVDSSYR	0.671 ± 0.37
MVLDLVRRNAQL	-0.151 ± 0.68
MVTTPFALTGFRDVMWCRAR	3.09 ± 0.092
MVVFRSY	-2.07 ± 1.9
MVVYFNLPAVMLIDCMMSAI	0.708 ± 0.62
MVWSQVQLRIGVMVM	-0.562 ± 0.4
MWAIFSLWVCSR	1.35 ± 0.41
MWDGGKVNVFTFRAKRPCVG	-0.215 ± 1.7
MWHERVGDVTVAHSNVGVMI	3.85 ± 0.082
MWLQHYWTHQAY	0.59 ± 0.88
MYAFASSKYEHIS	0.53 ± 0.32
MYEMTG	-0.388 ± 0.19
MYFFGQYVCYYWEH	7.381 ± 0.058
MYIFVDIFAAQLVTRWKGFE	-0.97 ± 1.9
MYISRFRF	3.42 ± 0.15
MYLFICVGSMVNQDVNEMMR	3.84 ± 0.084
MYLVM	0.191 ± 0.48

Substance	amyloid nucleation score
MYLVVTVRFNWLPRDQFTVL	0.848 ± 0.37
MYSLFMSKVRHFCVT	2.09 ± 0.6
MYVYVQISYFGLHCVWTMYK	-0.032 ± 0.45
MYYLRHF	inactive
NACFSIKQTYWNVT	0.537 ± 0.34
NALASLKVMILDPTMELCCA	0.996 ± 0.9
NCFVWRRMFKLISFDPYRV	inactive
NCHREFIHWVILNSGSSAHM	1.94 ± 0.57
NCHVT	-0.271 ± 0.29
NCIPALHEYVCMRR	0.282 ± 0.54
NCLVAFYLKGYSCWWRFIIC	1.53 ± 0.52
NCNKSFNLLECGSFGTVGPM	-0.324 ± 0.6
NCYSRDRSWGLDVVRYVVWW	-0.329 ± 1.6
NDDSDSVVFSTNGGIYFMHG	-0.177 ± 0.53
NDGVNPYNMACKMLSCYNSA	1.14 ± 0.97
NDRTGCVVGLHCEMNI	5.961 ± 0.045
NDRVNRNTFSYPWQVAFFRQ	4.94 ± 0.064
NDVTVID	0.286 ± 0.17
NEAMN	-0.21 ± 0.37
NEDLNS	0.194 ± 0.31
NEECVPHV	0.223 ± 0.34
NEEGVIQSFILVDALVVQGL	0.391 ± 0.39
